The record followed here is PMC3312455 (2009).

The target of the experiment is T1, VEGFR2/KDR ECD (Homo sapiens, UniProt P35968).
T1 chain: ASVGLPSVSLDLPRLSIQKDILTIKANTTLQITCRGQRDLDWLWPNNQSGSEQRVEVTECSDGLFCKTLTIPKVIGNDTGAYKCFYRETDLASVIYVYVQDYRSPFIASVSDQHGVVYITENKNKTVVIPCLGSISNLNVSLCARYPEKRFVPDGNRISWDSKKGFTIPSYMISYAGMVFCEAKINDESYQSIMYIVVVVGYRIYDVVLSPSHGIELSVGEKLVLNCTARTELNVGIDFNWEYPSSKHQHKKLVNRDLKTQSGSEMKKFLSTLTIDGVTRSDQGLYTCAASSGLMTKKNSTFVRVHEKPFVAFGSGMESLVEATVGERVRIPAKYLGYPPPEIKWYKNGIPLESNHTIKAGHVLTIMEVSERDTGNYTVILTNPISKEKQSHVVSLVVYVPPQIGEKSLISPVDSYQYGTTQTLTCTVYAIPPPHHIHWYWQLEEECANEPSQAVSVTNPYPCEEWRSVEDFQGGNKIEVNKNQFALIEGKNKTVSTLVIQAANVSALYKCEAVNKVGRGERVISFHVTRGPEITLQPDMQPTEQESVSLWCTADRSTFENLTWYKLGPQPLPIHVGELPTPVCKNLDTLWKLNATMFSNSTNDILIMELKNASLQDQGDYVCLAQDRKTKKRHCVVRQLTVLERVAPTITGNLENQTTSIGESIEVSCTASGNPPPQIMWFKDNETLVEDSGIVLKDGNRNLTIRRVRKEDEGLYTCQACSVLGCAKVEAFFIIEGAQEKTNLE
Put plainly: SPR. (In general: In SPR one partner is held on a chip, and binding of the other changes the refractive index at the surface.)

B1: HIV-Tat (protein)
chain: MEPVDPRLEPWKHPGSQPKTACTNCYCKKCCFHCQVCFITKALGISYGRKKRRQRRRAPQGSQTHQVSLSKQPTSQSRGDPTGPKE
By Kd is commonly meant the constant that tells how readily two partners part at equilibrium. A high value points to weaker binding. B1 displayed a Kd of 70 pM.

B2: VEGF-A165 (protein)
chain: MTDRQTDTAPSPSYHLLPGRRRTVDAAASRGQGPEPAPGGGVEGVGARGVALKLFVQLLGCSRFGGAVVRAGEAEPSGAARSASSGREEPQPEEGEEEEEKEEERGPQWRLGARKPGSWTGEAAVCADSAPAARAPQALARASGRGGRVARRGAEESGPPHSPSRRGSASRAGPGRASETMNFLLSWVHWSLALLLYLHHAKWSQAAPMAEGGGQNHHEVVKFMDVYQRSYCHPIETLVDIFQEYPDEIEYIFKPSCVPLMRCGGCCNDEGLECVPTEESNITMQIMRIKPHQGQHIGEMSFLQHNKCECRPKKDRARQEKKSVRGKGKGQKRKRKKSRYKSWSVPCGPCSERRKHLFVQDPQTCKCSCKNTDSRCKARQLELNERTCRCDKPRR
With B2, binding was put at a Kd of 41 pM.
